Measurements: paper PMC13079258, “Impact of Ser81 phosphorylation on alanine: glyoxylate aminotransferase associated with Primary hyperoxaluria type I” (Molecular Biomedicine, 2026)

T1: AGT (alanine:glyoxylate aminotransferase 1), AGT WT (Homo sapiens, UniProt P21549)
T1 construct: gene AGXT; apo-form prepared with L-alanine; dimer
T1 sequence (P21549 1-392): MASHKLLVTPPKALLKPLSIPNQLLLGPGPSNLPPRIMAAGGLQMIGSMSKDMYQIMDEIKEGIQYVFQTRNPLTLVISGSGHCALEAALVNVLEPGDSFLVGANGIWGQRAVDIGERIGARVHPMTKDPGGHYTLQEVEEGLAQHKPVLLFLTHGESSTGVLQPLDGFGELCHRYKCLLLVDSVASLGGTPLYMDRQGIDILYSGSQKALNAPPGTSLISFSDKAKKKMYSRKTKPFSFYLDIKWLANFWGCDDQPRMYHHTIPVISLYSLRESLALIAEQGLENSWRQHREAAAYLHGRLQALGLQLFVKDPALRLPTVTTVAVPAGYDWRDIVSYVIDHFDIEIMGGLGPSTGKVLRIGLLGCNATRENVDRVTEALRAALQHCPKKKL

B1: Alanine:glyoxylate aminotransferase (AGT) WT (enzyme, human, UniProt P21549 1-392, looked up)
chain: MASHKLLVTPPKALLKPLSIPNQLLLGPGPSNLPPRIMAAGGLQMIGSMSKDMYQIMDEIKEGIQYVFQTRNPLTLVISGSGHCALEAALVNVLEPGDSFLVGANGIWGQRAVDIGERIGARVHPMTKDPGGHYTLQEVEEGLAQHKPVLLFLTHGESSTGVLQPLDGFGELCHRYKCLLLVDSVASLGGTPLYMDRQGIDILYSGSQKALNAPPGTSLISFSDKAKKKMYSRKTKPFSFYLDIKWLANFWGCDDQPRMYHHTIPVISLYSLRESLALIAEQGLENSWRQHREAAAYLHGRLQALGLQLFVKDPALRLPTVTTVAVPAGYDWRDIVSYVIDHFDIEIMGGLGPSTGKVLRIGLLGCNATRENVDRVTEALRAALQHCPKKKL
notes: also called wild-type; major allele
B2: AGT LM-p.I244T (enzyme, human, UniProt P21549 1-392, looked up)
chain: MASHKLLVTPLKALLKPLSIPNQLLLGPGPSNLPPRIMAAGGLQMIGSMSKDMYQIMDEIKEGIQYVFQTRNPLTLVISGSGHCALEAALVNVLEPGDSFLVGANGIWGQRAVDIGERIGARVHPMTKDPGGHYTLQEVEEGLAQHKPVLLFLTHGESSTGVLQPLDGFGELCHRYKCLLLVDSVASLGGTPLYMDRQGIDILYSGSQKALNAPPGTSLISFSDKAKKKMYSRKTKPFSFYLDTKWLANFWGCDDQPRMYHHTIPVISLYSLRESLALIAEQGLENSWRQHREAAAYLHGRLQALGLQLFVKDPALRLPTVTTVAVPAGYDWRDIVSYVMDHFDIEIMGGLGPSTGKVLRIGLLGCNATRENVDRVTEALRAALQHCPKKKL
notes: Alanine:glyoxylate aminotransferase (AGT), human, minor allele (LM) with the PH1-associated variant p.I244T; also called set S81
B3: AGT LM p.S81D (enzyme, human, UniProt P21549 1-392, looked up)
chain: MASHKLLVTPLKALLKPLSIPNQLLLGPGPSNLPPRIMAAGGLQMIGSMSKDMYQIMDEIKEGIQYVFQTRNPLTLVISGDGHCALEAALVNVLEPGDSFLVGANGIWGQRAVDIGERIGARVHPMTKDPGGHYTLQEVEEGLAQHKPVLLFLTHGESSTGVLQPLDGFGELCHRYKCLLLVDSVASLGGTPLYMDRQGIDILYSGSQKALNAPPGTSLISFSDKAKKKMYSRKTKPFSFYLDIKWLANFWGCDDQPRMYHHTIPVISLYSLRESLALIAEQGLENSWRQHREAAAYLHGRLQALGLQLFVKDPALRLPTVTTVAVPAGYDWRDIVSYVMDHFDIEIMGGLGPSTGKVLRIGLLGCNATRENVDRVTEALRAALQHCPKKKL
notes: Alanine:glyoxylate aminotransferase (AGT), human, minor allele (LM) background with the phosphomimetic S81D; site-directed mutant of the pCOLDII construct of m2; also called set D81
B4: AGT LM-p.G170R p.S81D (enzyme, human, UniProt P21549 1-392, looked up)
chain: MASHKLLVTPLKALLKPLSIPNQLLLGPGPSNLPPRIMAAGGLQMIGSMSKDMYQIMDEIKEGIQYVFQTRNPLTLVISGDGHCALEAALVNVLEPGDSFLVGANGIWGQRAVDIGERIGARVHPMTKDPGGHYTLQEVEEGLAQHKPVLLFLTHGESSTGVLQPLDGFRELCHRYKCLLLVDSVASLGGTPLYMDRQGIDILYSGSQKALNAPPGTSLISFSDKAKKKMYSRKTKPFSFYLDIKWLANFWGCDDQPRMYHHTIPVISLYSLRESLALIAEQGLENSWRQHREAAAYLHGRLQALGLQLFVKDPALRLPTVTTVAVPAGYDWRDIVSYVMDHFDIEIMGGLGPSTGKVLRIGLLGCNATRENVDRVTEALRAALQHCPKKKL
notes: Alanine:glyoxylate aminotransferase (AGT), human, LM-p.G170R background with the phosphomimetic S81D; site-directed mutant of the pCOLDII construct of m3; also called set D81
B5: AGT LM p.S81A (enzyme, human, UniProt P21549 1-392, looked up)
chain: MASHKLLVTPLKALLKPLSIPNQLLLGPGPSNLPPRIMAAGGLQMIGSMSKDMYQIMDEIKEGIQYVFQTRNPLTLVISGAGHCALEAALVNVLEPGDSFLVGANGIWGQRAVDIGERIGARVHPMTKDPGGHYTLQEVEEGLAQHKPVLLFLTHGESSTGVLQPLDGFGELCHRYKCLLLVDSVASLGGTPLYMDRQGIDILYSGSQKALNAPPGTSLISFSDKAKKKMYSRKTKPFSFYLDIKWLANFWGCDDQPRMYHHTIPVISLYSLRESLALIAEQGLENSWRQHREAAAYLHGRLQALGLQLFVKDPALRLPTVTTVAVPAGYDWRDIVSYVMDHFDIEIMGGLGPSTGKVLRIGLLGCNATRENVDRVTEALRAALQHCPKKKL
notes: Alanine:glyoxylate aminotransferase (AGT), human, minor allele (LM) background with S81A; site-directed mutant of the pCOLDII construct of m2; also called set A81
B6: AGT LM (minor allele, p.P11L and p.I340M) (enzyme, human, UniProt P21549 1-392, looked up)
chain: MASHKLLVTPLKALLKPLSIPNQLLLGPGPSNLPPRIMAAGGLQMIGSMSKDMYQIMDEIKEGIQYVFQTRNPLTLVISGSGHCALEAALVNVLEPGDSFLVGANGIWGQRAVDIGERIGARVHPMTKDPGGHYTLQEVEEGLAQHKPVLLFLTHGESSTGVLQPLDGFGELCHRYKCLLLVDSVASLGGTPLYMDRQGIDILYSGSQKALNAPPGTSLISFSDKAKKKMYSRKTKPFSFYLDIKWLANFWGCDDQPRMYHHTIPVISLYSLRESLALIAEQGLENSWRQHREAAAYLHGRLQALGLQLFVKDPALRLPTVTTVAVPAGYDWRDIVSYVMDHFDIEIMGGLGPSTGKVLRIGLLGCNATRENVDRVTEALRAALQHCPKKKL
notes: Alanine:glyoxylate aminotransferase (AGT), human, common polymorphic minor allele (LM); also called set S81
B7: AGT LM-p.G170R p.S81A (enzyme, human, UniProt P21549 1-392, looked up)
chain: MASHKLLVTPLKALLKPLSIPNQLLLGPGPSNLPPRIMAAGGLQMIGSMSKDMYQIMDEIKEGIQYVFQTRNPLTLVISGAGHCALEAALVNVLEPGDSFLVGANGIWGQRAVDIGERIGARVHPMTKDPGGHYTLQEVEEGLAQHKPVLLFLTHGESSTGVLQPLDGFRELCHRYKCLLLVDSVASLGGTPLYMDRQGIDILYSGSQKALNAPPGTSLISFSDKAKKKMYSRKTKPFSFYLDIKWLANFWGCDDQPRMYHHTIPVISLYSLRESLALIAEQGLENSWRQHREAAAYLHGRLQALGLQLFVKDPALRLPTVTTVAVPAGYDWRDIVSYVMDHFDIEIMGGLGPSTGKVLRIGLLGCNATRENVDRVTEALRAALQHCPKKKL
notes: Alanine:glyoxylate aminotransferase (AGT), human, LM-p.G170R background with S81A; site-directed mutant of the pCOLDII construct of m3; also called set A81
B8: AGT LM-p.G170R (enzyme, human, UniProt P21549 1-392, looked up)
chain: MASHKLLVTPLKALLKPLSIPNQLLLGPGPSNLPPRIMAAGGLQMIGSMSKDMYQIMDEIKEGIQYVFQTRNPLTLVISGSGHCALEAALVNVLEPGDSFLVGANGIWGQRAVDIGERIGARVHPMTKDPGGHYTLQEVEEGLAQHKPVLLFLTHGESSTGVLQPLDGFRELCHRYKCLLLVDSVASLGGTPLYMDRQGIDILYSGSQKALNAPPGTSLISFSDKAKKKMYSRKTKPFSFYLDIKWLANFWGCDDQPRMYHHTIPVISLYSLRESLALIAEQGLENSWRQHREAAAYLHGRLQALGLQLFVKDPALRLPTVTTVAVPAGYDWRDIVSYVMDHFDIEIMGGLGPSTGKVLRIGLLGCNATRENVDRVTEALRAALQHCPKKKL
notes: Alanine:glyoxylate aminotransferase (AGT), human, minor allele (LM) with the PH1-associated variant p.G170R; also called set S81
B9: AGT LM-p.I244T p.S81D (enzyme, human, UniProt P21549 1-392, looked up)
chain: MASHKLLVTPLKALLKPLSIPNQLLLGPGPSNLPPRIMAAGGLQMIGSMSKDMYQIMDEIKEGIQYVFQTRNPLTLVISGDGHCALEAALVNVLEPGDSFLVGANGIWGQRAVDIGERIGARVHPMTKDPGGHYTLQEVEEGLAQHKPVLLFLTHGESSTGVLQPLDGFGELCHRYKCLLLVDSVASLGGTPLYMDRQGIDILYSGSQKALNAPPGTSLISFSDKAKKKMYSRKTKPFSFYLDTKWLANFWGCDDQPRMYHHTIPVISLYSLRESLALIAEQGLENSWRQHREAAAYLHGRLQALGLQLFVKDPALRLPTVTTVAVPAGYDWRDIVSYVMDHFDIEIMGGLGPSTGKVLRIGLLGCNATRENVDRVTEALRAALQHCPKKKL
notes: Alanine:glyoxylate aminotransferase (AGT), human, LM-p.I244T background with the phosphomimetic S81D; site-directed mutant of the pCOLDII construct of m4; also called set D81
B10: AGT LM-p.I244T p.S81A (enzyme, human, UniProt P21549 1-392, looked up)
chain: MASHKLLVTPLKALLKPLSIPNQLLLGPGPSNLPPRIMAAGGLQMIGSMSKDMYQIMDEIKEGIQYVFQTRNPLTLVISGAGHCALEAALVNVLEPGDSFLVGANGIWGQRAVDIGERIGARVHPMTKDPGGHYTLQEVEEGLAQHKPVLLFLTHGESSTGVLQPLDGFGELCHRYKCLLLVDSVASLGGTPLYMDRQGIDILYSGSQKALNAPPGTSLISFSDKAKKKMYSRKTKPFSFYLDTKWLANFWGCDDQPRMYHHTIPVISLYSLRESLALIAEQGLENSWRQHREAAAYLHGRLQALGLQLFVKDPALRLPTVTTVAVPAGYDWRDIVSYVMDHFDIEIMGGLGPSTGKVLRIGLLGCNATRENVDRVTEALRAALQHCPKKKL
notes: Alanine:glyoxylate aminotransferase (AGT), human, LM-p.I244T background with S81A; site-directed mutant of the pCOLDII construct of m4; also called set A81
B11: AGT WT p.S81A (enzyme, human, UniProt P21549 1-392, looked up)
chain: MASHKLLVTPPKALLKPLSIPNQLLLGPGPSNLPPRIMAAGGLQMIGSMSKDMYQIMDEIKEGIQYVFQTRNPLTLVISGAGHCALEAALVNVLEPGDSFLVGANGIWGQRAVDIGERIGARVHPMTKDPGGHYTLQEVEEGLAQHKPVLLFLTHGESSTGVLQPLDGFGELCHRYKCLLLVDSVASLGGTPLYMDRQGIDILYSGSQKALNAPPGTSLISFSDKAKKKMYSRKTKPFSFYLDIKWLANFWGCDDQPRMYHHTIPVISLYSLRESLALIAEQGLENSWRQHREAAAYLHGRLQALGLQLFVKDPALRLPTVTTVAVPAGYDWRDIVSYVIDHFDIEIMGGLGPSTGKVLRIGLLGCNATRENVDRVTEALRAALQHCPKKKL
notes: Alanine:glyoxylate aminotransferase (AGT), human, wild-type background with S81A; site-directed mutant of the pCOLDII construct of m1; also called set A81
B12: AGT WT p.S81D (enzyme, human, UniProt P21549 1-392, looked up)
chain: MASHKLLVTPPKALLKPLSIPNQLLLGPGPSNLPPRIMAAGGLQMIGSMSKDMYQIMDEIKEGIQYVFQTRNPLTLVISGDGHCALEAALVNVLEPGDSFLVGANGIWGQRAVDIGERIGARVHPMTKDPGGHYTLQEVEEGLAQHKPVLLFLTHGESSTGVLQPLDGFGELCHRYKCLLLVDSVASLGGTPLYMDRQGIDILYSGSQKALNAPPGTSLISFSDKAKKKMYSRKTKPFSFYLDIKWLANFWGCDDQPRMYHHTIPVISLYSLRESLALIAEQGLENSWRQHREAAAYLHGRLQALGLQLFVKDPALRLPTVTTVAVPAGYDWRDIVSYVIDHFDIEIMGGLGPSTGKVLRIGLLGCNATRENVDRVTEALRAALQHCPKKKL
notes: Alanine:glyoxylate aminotransferase (AGT), human, wild-type background with the phosphomimetic S81D; site-directed mutant of the pCOLDII construct of m1; also called set D81

Target: the molecule itself
Assay: dynamic light scattering; 10 µM AGT as purified, 25 °C, 20 mM HEPES (sodium salt), 200 mM NaCl, pH 7.4; hydrodynamic radius assuming spherical particles (Stokes-Einstein)
Settings: not given

Molecule | stoichiometry N
B1 | 2
B2 | 2
B3 | 2
B4 | 2
B5 | 2
B6 | 2
B7 | 2
B8 | 2
B9 | 2
B10 | 2
B11 | 2
B12 | 2

Target: T1, AGT (alanine:glyoxylate aminotransferase 1), AGT WT
Assay: absorption and near-UV/visible CD after L-alanine; 30-kDa filtration for released PMP
Assay type: biochemical
Settings: 20 uM holo-AGT, 200 mM L-alanine, 25 C, HEPES 20 mM, NaCl 200 mM, pH 7.4

Molecule | absorption and near-UV/visible CD after L-alanine; 30-kDa filtration for release
Cc1ncc(COP(=O)(O)O)c(CN)c1O [PMP] | the CD signal associated with PMP formation, clearly present in S81 and A81 sets
